Assay: yeast display, Sf9 membrane polyspecificity reagent, FACS + sequencing; frameworks hold sequencing errors
Summary of the method: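 Using colony PCR, genes from sorted yeast display clones were amplified, then sequenced on MiSeq at 2 × 250 and filtered by CDR length. The clones had been stained with 10% biotinylated, detergent-solubilized Sf9 membrane reagent for 1 hour at 4 °C and sorted by FACS into low and high (top ~1%) gates on anti-HA and streptavidin fluorescence. Polyreactivity labels come from the gate of origin.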

Row | Sequence | polyreactivity (PSR sort gate)
1 | QVQLVESGGGLVQAGGSLRLSCAASGRTFGQYAMGWYRQAPGKEREFVAAITSSGGSTYYADSVNGRFTISRDNAKNTVYLLMNSLNPEDTAVYYCAAPISRSAGWDSYDYWGQGTQVTVSS | low polyreactivity
2 | QVQLVESGGGLVQAGGSLRLSCAASGFTFWTYAMGWYRQAPGKERELVAAIDSGGSTYYADSVKGRFTISRDNAKNTVYLQMNSVKPEDTAVYYCNAGPSVTSGYDYDYWGQGTQVTVSS | low polyreactivity
3 | QVQLVESGGGLVQAGGSLRLSCAASGRTFGWNVMGWYRQAPGKERELVAAISGGGTSTYYADSVKGRFTISRDNAKNTVYLQMNSLKPEDTGVYYCNAYYPGSYYPRSGRYDYWGQGTQVTVSS | high polyreactivity
4 | QVQLVESGGGLDQAGGSLRLSCAASGSTFYAYAMGWYRQAPGKERELVAANSSDGTNYADSVKGRFTLSRDNAKNTVYLQMNSLKPEDTAVYYCAKDSVWGAKNLTSYKYYYWGQGTQVTVSS | low polyreactivity
5 | QVQLVESGGGLVQAGGSLRLSCAASGSIFPGNTMGWYRQAPGKERELVAVITKRGGRTYYADSVKGRFTISRDNAKNTVYLQMNSLKPEDTAVYYCARAPSYSTGVSIRDYWGQGTQVTVSS | high polyreactivity
6 | QVQLVESGGGLVQAGGSLRLSCAASGRTFYSNAMGWYRPAPGKERELVAAITFGGGSTYYADSVKGRFTISRDNAKNTVYVQMNSLKPEDTAVYYCAAEGYKYRFYYWGQGTQVTVSS | low polyreactivity
7 | QVHLVESGGGLVQAGGSLRLSCAATGRTLTCNARGWYRQAPGKERELVPAISRSGGGSTYYADSVKGRFTISRDTAKNTVYIQMISLKPEDTAVYYCAARYRVHYYWYPMGYWGQGTQVTVSS | high polyreactivity
8 | QVQLVESGGGLVQAGGSLRLSCPASGRTFGIYAMGWYRQAHGKERELVAAITWSGDSTYYADSVKGRFTISRDNAKNTVYLQMNSLKPEDTAVYYCAADYVGVTSVRYDYWGQGTQVTVSS | low polyreactivity
9 | QVQLVESGGRLVPAGGSLRLTCAASGIISVYYVMGWYRPAPGKERELVAAINRSGGNTYYADSVKGRFTISRDNAKNTVYLQMNSLKPEDTAVYYCKASLYFYRYGHDDESDYWGQGTQVTVSS | high polyreactivity
10 | QVQLVESGGGLVQAGGSLRLSCAASGRTFTVYAMGWYRQAPGKEREFVATISRSGGSTYYADSVKGRFTISRDNAKNTVYLQMNSLKPEDTAVYYCAARRSGRKYDYWGQGTQVTVSS | high polyreactivity
11 | QVQLVESGGGLVQAGGSLRLCCAASGSTFTLYAMGWYSQAPGKVRELVAAISWSTTSTYYAHSVKGRFTISRDNAKNTVSLQMNSLKPEDTAVYYCAAELYRAEYDYWGQGTQVTVSS | high polyreactivity
12 | QVQLVESGGGLVQAGGSLRLSCAASGITFYKYVMGWYRKAPGKERELVAAISSVGSTYYADSVKGRFTISRDNAKNTVYLQMNSLKPEDTAVYYCAAKYWKWYHYGFGYWGQGTQVTVSS | high polyreactivity
13 | QVQLVESGGGLVQAGGSLRLSCSASGHIFRTYAMGWYRQAPWKERELVAGITPNGDTTYYADSVKGRFTISRDHAKITVYLQMNSLKPEDTAVYYCDAQYSQRPADRYNSWGQGTQVTVSS | low polyreactivity
14 | QVQLVESGGGLVQAGGSLRLSCAASGLTFAYYAMGWYRQAPGKERELVAAISLSGGSTYYADSVKGRFTISRDNAKNTVYLQMNSLKPEDTAVYYCNKGSYYWWDPGSTYIDDYWGQGTQVTVSS | low polyreactivity
15 | QVQLVESGGGLVQAGGSLRLSCDASGSIIGFYAMVWYRQAPGKERELVASISSSGDSTYYADSVKGRFTFSRDIAKNTVYLQMNSLIPEDTAVYYCAAVVYDIYGYEFDYWGQGTQLTVSS | low polyreactivity
16 | QVQLVESGGGLVQAGGSLRLSCAASGFIIGRNVMGWYRQAPGKERELVAAISYSGGSTYYADSVKGRFTISRDNAKNTVYLQMNSLKPEDTAVYYCNAEAWVSQDWCQWVAYDYWGQGTQVTVSS | high polyreactivity
17 | QVQLVESGGGLVQAGGSLRLSCAASGSTFGSYAMGWYRQAPGKERELVAAITGSGGRTYYADSVKGRFTISRDNAKNRVYLQLNSLKPEDTAVYYCAKVPDYRFEYWGQGTQVTVSS | high polyreactivity
18 | QVQLVESGGGLVQAGGSLRLSCAASGIIFYSYTMGWYRQAPGKERELVAAISRNGGGTYYADSEKGRFTISRDNAKNTVYLQMNSLNPEETAVYYCAAEVDQWYYRGYDYWGQGTQVTVSS | high polyreactivity
19 | QVQLVESGGGLVKAGGSLRLSCAASGSTFRYYVMGWYRQAPGNERELVAAISRGGRTYYADSVKGRFTISRDNAKYSVYLQMNSLKPEDTAVYYCAVDYIVQSGSRIAGDYWGQGTQVTVSS | high polyreactivity
20 | QVQLVESGGGLVQAGGSLRLSCAASGSIFYRNAMGCSRQARGKERELVAAISSSGTRTYYADSVKGRFTISRDNAKNTVYLQMNILKPEDTAVYYCAAGVVLWYRRRYYYWGQGTQVTVSS | high polyreactivity
21 | QVQLLESGGGLVQAGGSLRLRCAASGFTFRKYTMGWYRQAPGKERELVAAISSGVSTNYADSVKGRFTISRDNAKKTVYLQMNSLKAEDTAVYYCAARGGYYQGRYKYGYWGQGTQVTVSS | high polyreactivity
22 | QVQLVESGGGLVQAGGILRLSCAASGRTFLYYAMGWYRQAPGKERELVAGITSGGSTNYADSVKGRFTISRDTAKNTDYLQMNSLKPEDTAVYYCAVDQGYYRTADVNYDYWGQGTQVTVSS | low polyreactivity

Row | Sequence | polyreactivity (PSR sort gate)
23 | QVQLVESGGGLVQAGGSLRLSCAVSGGILYEYAMGSDREAPGKERELVAAITTSGSTYYADSVKGRFTISRDNAKNTVDLLMNSLKPEDTAVYYCAADSDYFYYDLDYWGQGTQVTVSS | low polyreactivity
24 | QVQLVESGGGLVQAGGSLRLSCAASGSIFPRYGMGLYRQAPGKERELVAAITTGGNTYYADSVKGRFTISRDNAKNTVYLQMNSLKPEDTAVYYCNARAVTPWFGFYYWGQGTQVTVSS | low polyreactivity
25 | QVQLVESGGGLVQAGGSLRLSCAASGINFGRYAMGWYRQAPGKERELVATITVNGGRTYYADSVKGRFTISRDNAKNTVYLQMNSLKPEDTAVYYCNAEVPGHYFDGWYFYDFDYWGQGTQVTVSS | low polyreactivity
26 | QVQLVESGGGLVQAGGSLRLSCAASGFNFSYYVMGWSRQAPGKERELVAAITKSGGSTYYADSVKGRFTISRDNAKNTVYLQMNSLKPEDTAVYYCAAVRGYRGYDYWGQGTQVTVSS | high polyreactivity
27 | QVQLVESGGGLVQAGGSLSLTCAASGITFYLYAMGWDIQAPGKERELVAAISSGSRTTYADSVKGRFTISRDNEKNTVYLQMNSLKPEDTAFYYCAAAYWNWGYYYSYDYWGQGTQVTVSS | high polyreactivity
28 | QDQLVESGGGLVQPGGSLRLSCAASGITFYYYTMGWYRQAPGKERELVAGITRGGRTYYADSVKGRFTISRDNAKNTVYLQMNSLKPVDSAVYYCNADPWWRFDYWGQGTQVTVSS | low polyreactivity
29 | QVQLVESGGGLVQAGGSLRLSCAASGFTLGLYAMGWYRQAPGKERELVAAITAGGDSTDYADSVKGRFTISRDNAKNTVYLQMNSLKPEDTAVYYCAAPSYWLYYYILDSSDYWGQGTQVTVSS | high polyreactivity
30 | QVQLQESGGGLVQAGGSLRLSCAASGNIYDADIMGWYRQAPGKERELVTSITDGGSTNYADSVKGRFTISRDNAKNTVYLQMNSLKPEDTAVYYCAAIAYPDIPTSFDYNTDYSYWGQGTQVTVSS | low polyreactivity
31 | QVQLVESGGGLVQAGGSLRLSCAASGIIFKVNVMGWYRQAPGKERELVAAISWSGGSTYYADSVKGRFTISRDNAKNTFYLQMNILKPEDTAVYYCAAYSYVYGERYYFWGQGTQLTVSS | high polyreactivity
32 | QVQLVESGGGFVQAGCSLRLSCAASGSIFLYNAMGWYRQAPGNDRELVATISYIGGRTYYADSVKGRFSISRDKAKNTVYSQMNSLKPEDTAVYYCAAEYYVISSPSFYEYDYWGQGTQVTVSS | low polyreactivity
33 | QVQLVESGGGLVQAGGRLRLSCAASGRTFFRYVMGWYRQAPGKERELVAAISRSGGSTYYADSVKGRFTISRDNAKNTVYLQMNSLKPEATAVFYCNTVARSTVVPTEFDYWGQGTQVTVSS | high polyreactivity
34 | QVQLVESGGGLVQAGGSLRLSCAASGSTFYRYAMGWYRQAPGKERELVAAITWNGGSTYYADSVKGRFTISRDNAKNTVYLQMNSLKPEDTAVYYCNKVSRRDTYEYDYWGQGTQVTVSS | high polyreactivity
35 | QVQLVESGGGLVQAGGSLRLSCAASGSIYWLYAMGWYRQAPGKERELVAAIDSGDSTKNADSVKGRFTISRDNAKNTVYLQMNSLKPEDTAVYYCNASRRYHVRAPYDYWGQGTHVTVSS | low polyreactivity
36 | QVQLVESGGGLVQAGGSLRLSCAASGYIFDYYDMGWYRQAPGKERELVAAINGSGGDTYYADSVKGRFTISRDNANNTVYLEMNSLKPEDTAVYYCAADLVYYSGWGYAFNYWGQGTQVNVSS | high polyreactivity
37 | QVQLVESGGCVVQAGGSLRLICAASGRTFGRNVMGWYRQAPGKEMELVAAISRSGGSTYYADSVKGRFTISRDNAKNTVYLQMNSLKPEDTAVYYCAAYSVGDYYWGQGTQVTVSS | high polyreactivity
38 | QVQLVESGGGLVQAGGSLRLSCAASGLTSTNNAMGWYRQAHGKERELVAAITSGSTTNYADSVKGRFTISRDNAKNTVYLQMNSLKPEDTAVYYCAAQYGVCWRRYYYPEYDYWGQGTQVTVSS | low polyreactivity
39 | QDQLVESGGALVQAGGSLRLSCAASGSIFDYNAMGWYRQAPRKDRELVAAISVNGGNTYYADSVKGRFTISRDNAKNTVYLQMNRLKPEDTGVSYCAADSYGGSNYDFWGQGTQVTVSS | low polyreactivity
40 | QVQLVESGGGLVQAGGSLRLSCAASGLIFGGNAMGWYRQAPGKERELVAAISRSTGRTYYADSVKGRFTISRDNEKNTVYLQMNSLKPEDTAVYYCNAVGYAFPSYDSWGQGTQVTVSS | high polyreactivity
41 | QVQLVESGGGLVQAGGSLRLSCAASGSNFDPNAMGWYRQAPGKERELVAAISWSGGSTYYADSVKGRFTISRDNAKNTVYLQMNSLKPEDTAVSYCNAQFYDSYSYTNDDWGQGTLVTVSS | low polyreactivity
42 | QVQLVESGGGLVQAGGSLRLSCAASGRIFRYYDMGWYRPAPGKERELVAAINSGGSTKYADSVKGRFTISRDNAKNTVYLQMNSLKPEDTAVYYCAADKARAWGYDYWGQGTQVTVSS | high polyreactivity
43 | QVQLVESGGGLVQAGGSLRLTCAASGSTYLNYAMGWYRQAPGKERELVAAITSGGRTYYADSVKGRFTISRDNAKNTVYLQMNSLKPEDTAVYYCAKVSYRYGLYDYWGQGTQVTVSS | high polyreactivity
